PMC8028046 (Biochemistry, 2021)

Biological target: the molecule itself
Experiment: SEC; elution profiles of proSP-C BRICHOS WT and T187R

B1: proSP-C BRICHOS WT (domain or fragment, human, UniProt P11686 59-197, looked up)
chain: HMSQKHTEMVLEMSIGAPEAQQRLALSEHLVTTATFSIGSTGLVVYDYQQLLIAYKPAPGTCCYIMKIAPESIPSLEALTRKVHNFQMECSLQAKPAVPTSKLGQAEGRDAGSAPSGGDPAFLGMAVSTLCGEVPLYYI
notes: human proSP-C (surfactant protein C precursor), BRICHOS domain, residues 59-197 of UniProt P11686; Mainly trimeric; The mutant's mass of 18328 Da is larger than residues 59-197 alone would give, so the construct probably carries extra residues (surmise); also called proSP-C BRICHOS domain; WT proSP-C BRICHOS domain
  binding result: binds
